The term stoichiometry N denotes a count of units in the complex or per binding partner. As a reminder, the Kd is the concentration at which binding is half-saturated.

Results on ten molecules are retold here after PMC5974088, “Structural basis for recognition of 53BP1 tandem Tudor domain by TIRR” (Nature Communications, 2018).

Numbering of substitutions follows the chain as printed.

First the molecules themselves.
B1: 53BP1 tandem Tudor domain (1484-1603) (domain or fragment, H. sapiens)
chain: GHMNSFVGLRVVAKWSSNGYFYSGKITRDVGAGKYKLLFDDGYECDVLGKDILLCDPIPLDTEVTALSEDEYFSAGVVKGHRKESGELYYSIEKEGQRKWYKRMAVILSLEQGNRLREQYGLG
notes: overhang left after TEV cleavage, printed as Gly-His-Met; 53BP1 tandem Tudor domain, H. sapiens, residues 1484-1603; also called 53BP1 Tudor; 53BP1-Tudor WT; source: E. coli BL21-Codon PLUS(DE3)-RIPL, purified (Ni-NTA, TEV, Superdex200); not shown: His6, N-terminal, cleaved
B2: 53BP1 Tudor L1547G (domain or fragment, H. sapiens)
chain: B1 chain with L67G
notes: overhang left after TEV cleavage, printed as Gly-His-Met; 53BP1 tandem Tudor domain, H. sapiens, residues 1484-1603; source: E. coli BL21-Codon PLUS(DE3)-RIPL, purified as the wt protein; not shown: His6, N-terminal, cleaved
B3: 53BP1 Tudor W1495A (domain or fragment, H. sapiens)
chain: B1 chain with W15A
notes: as for B2
B4: 53BP1 Tudor Y1500A (domain or fragment, H. sapiens)
chain: B1 chain with Y20A
notes: as for B2
B5: 53BP1 Tudor L1547A (domain or fragment, H. sapiens)
chain: B1 chain with L67A
notes: as for B2
B6: 53BP1 Tudor F1553A (domain or fragment, H. sapiens)
chain: B1 chain with F73A
notes: as for B2
B7: 53BP1 Tudor D1521A (domain or fragment, H. sapiens)
chain: B1 chain with D41A
notes: as for B2
B8: 53BP1 Tudor Y1523A (domain or fragment, H. sapiens)
chain: B1 chain with Y43A
notes: as for B2
B9: 53BP1 Tudor-UDR domain (1484-1631) (domain or fragment, H. sapiens)
chain: GHMNSFVGLRVVAKWSSNGYFYSGKITRDVGAGKYKLLFDDGYECDVLGKDILLCDPIPLDTEVTALSEDEYFSAGVVKGHRKESGELYYSIEKEGQRKWYKRMAVILSLEQGNRLREQYGLGPYEAVTPLTKAADISLDNLVEGKRKRRS
notes: overhang left after TEV cleavage, printed as Gly-His-Met; 53BP1 Tudor-UDR domain, H. sapiens, residues 1484-1631; source: E. coli BL21-Codon PLUS(DE3)-RIPL, purified (Ni-NTA, TEV, Superdex200); not shown: His6, N-terminal, cleaved
B10: mouse TIRR (6-211) (domain or fragment, M. musculus)
chain: GHMVPELKQISREEAMRLGPGWSHSCHAMLYAANPGQLFGRIPMRFSVLMQMRFDGLLGFPGGFVDRRFWSLEDGLNRVLGLGLGGLRLTEADYLSSHLTEGPHRVVAHLYARQLTLEQLHAVEISAVHSRDHGLEVLGLVRVPLYTQKDRVGGFPNFLSNAFVSTAKYQLLFALKVLNMMPSEKLAEALASATEKQKKALEKLLPPSS
notes: overhang left after TEV cleavage, printed as Gly-His-Met; TIRR (Nudt16L1), M. musculus, residues 6-211; Homodimer by ultracentrifugation and in the crystal; also called Nudt16L1; source: E. coli BL21-Codon PLUS(DE3)-RIPL, purified (Ni-NTA, TEV, heparin, Superdex200); not shown: His6, N-terminal, cleaved

Series [1] has as its target B10. Briefly: ITC; 200-400 μM 53BP1 Tudor domain (wt or mutant) injected into 200 μl of 22-44 μM TIRR or Nudt16 (wt or mutant); 25 °C; 20 mM Tris-HCl pH 7.5, 150 mM NaCl; single-site binding model. The conditions noted are these: both partners purified. Background: In ITC the heat of successive injections is recorded.
Another series deals with T1, human TIRR (6-211) (H. sapiens, UniProt Q9BRJ7 6-211).
T1 construct: overhang left after TEV cleavage, printed as Gly-His-Met; TIRR (Nudt16L1), H. sapiens, residues 6-211; also called Nudt16L1; source: E. coli BL21-Codon PLUS(DE3)-RIPL, purified (Ni-NTA, TEV, heparin, Superdex200); not shown: His6, N-terminal, cleaved
The series is described as above. Conditions: both partners purified.

Series [2] concerns the target B10. Briefly: AUC; sedimentation velocity (20 °C) and sedimentation equilibrium (16 °C); TIRR and 53BP1 Tudor premixed at 2:1 ratio; 20 mM Tris-HCl pH 7.5, 150 mM NaCl. The conditions noted are these: both partners purified.
Series [3] has as its target B10. Description: AUC; sedimentation velocity, 20 °C; TIRR and 53BP1 Tudor assembled in equal molar ratio; 20 mM Tris-HCl pH 7.5, 150 mM NaCl. The conditions noted are these: both partners purified.
Series [4] concerns the target B10. Briefly: ITC; 200-400 μM 53BP1 Tudor domain (wt or mutant) injected into 200 μl of 22-44 μM TIRR or Nudt16 (wt or mutant); 25 °C; 20 mM Tris-HCl pH 7.5, 150 mM NaCl; single-site binding model. The conditions noted are these: both partners purified. This is another data set of the same source.
The target in series [5] is B10. The series is described as above. Conditions: both partners purified. This is another data set of the same source.
Series [6] concerns the molecule itself. Briefly: AUC; TIRR alone; 20 mM Tris-HCl pH 7.5, 150 mM NaCl; dimer.

T1 sequence (Q9BRJ7 other isoform, or with tags, fused parts or gaps): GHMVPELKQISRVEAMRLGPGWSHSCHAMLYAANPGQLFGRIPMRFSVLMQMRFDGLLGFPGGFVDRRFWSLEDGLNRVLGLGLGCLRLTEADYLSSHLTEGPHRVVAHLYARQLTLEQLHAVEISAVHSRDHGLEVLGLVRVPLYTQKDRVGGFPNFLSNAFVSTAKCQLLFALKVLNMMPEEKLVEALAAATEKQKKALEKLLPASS

B1: the “stoichiometry N” value with mouse TIRR (6-211) [1] is 1; in the series with mouse TIRR (6-211) [2] it was 0.5 53BP1 Tudor per TIRR (printed as TIRR/53BP1 Tudor 2:1); with mouse TIRR (6-211) [3] it was 1 53BP1 Tudor per TIRR (printed as 2:2). Also, the Kd in the series with human TIRR (6-211) and with mouse TIRR (6-211) [4] was 0.9 µM throughout. In the case of B2, the Kd with mouse TIRR (6-211) [5] worked out at 17.3 µM.

For the molecule B3, the equilibrium dissociation constant (Kd) with mouse TIRR (6-211) [5] was found to be 15.4 µM. Still for that read-out and setting: the value for B4 was 12.7 µM; that for B5 was 4.7 µM. Same read-out and setting: the same measure for B6: 1.5 µM; for B7: 5.4 µM; for B8: 28.5 µM. B9 yielded an equilibrium dissociation constant (Kd) with mouse TIRR (6-211) [1] of 0.9 µM.

With B10, the “stoichiometry N” value in series [6] is 2.
